Where “and” joins values, the source holds several entries; their conditions need not be identical. Equal entries are not always repeated. Entries after “also recorded” stand apart in the source; their conditions may differ.
Tests used:
[1] = tested on: T6 generation transgenic maize plants; assay: Detection of herbicide (Roundup/glyphosate) resistance of transgenic maize plants in field; type: in vivo; conditions: for phytotoxicity after Roundup treatment: 800 ml/mu Roundup (41% glyphosate) at 5-6 leaf age; for phytotoxicity response at late stage of plants growth: 800 ml/mu Roundup at 5-6 leaf age
Procedure: 1. the experimental materials: T6 generation transgenic maize plants, including plants transformed with mG2-aroA gene, plants transformed with G2-aroA gene, and plants transformed with pS3300-UG0 blank vector. At the same time, the non-transgenic maize plants were used as a control.
2. experiment design: 5M of row length, 3 row plots, 3 times of repeat, density: 60×35 cm
3. experiment treatment: applying Roundup (containing 41% of glyphosate, recommbinated applying amount in field is 150-250 ml/mu) in an amount of 800 ml/mu.
4. the experiment treatment timing: 5-6 leaf age. The experimental result was observed 7 days later.

G2-aroA protein = assay: Double-antibody sandwich ELISA detection of G2-aroA protein expression in transgenic maize leaves; type: in vivo; conditions: for G2-aroA protein concentration: T6 generation transgenic maize, five-leaf stage, leaf fresh weight, single plants 1-4; for expression amount of G2-aroA protein in per gram (fresh weight) of leaf plate: transgenic maize
Procedure: The sample extracting solution: 25 mM of Tris-Cl (pH8.0), 10 mM of KCl, 20 mM of MgCl2.6H2O, 1 mM of DTT, 1 mM of PMSF (added before using).
Taking T6 generation transgenic maize plants (including plants transformed with the mG2-aroA gene and plants transformed with G2-aroA gene) at the same growth state (five-leaf stage), and taking about 1 g (fresh weight) of each function leaf (top-three leaves) plates, then grinding in liquid nitrogen. Transferring into 10 ml of centrifugal tube, into which 3 ml of sample extracting solution was added, and shaking strongly. Then centrifugalizing for 1 h at 4° C. The supernatant was taken as a sample to be detected and stand by service. Since the transformed genes are different, there are two samples to be detected, that is, a sample derived from mG2-aroA transgenic plants (sample to be detected is mG2-aroA) and a sample derived from G2-aroA transgenic plants (sample to be detected is G2-aroA). At the same time, the T6 generation maize plants transformed with pS3300-UG0 blank vector and the non-transgenic maize plants were used as controls.
The weight weighting when the leaf plates were ground in liquid nitrogen into powder samples and added into centrifugal tube containing the extracting solution subtracts that weighting before adding sample into centrifugal tube containing the extracting solution to obtain the fresh weight described above.
(1) Coating: the primary antibody (rabbit antibody) with concentration of 1.5 mg/ml (preparation method, see last part of this specification) against G2-aroA protein was diluted in coating buffer. And then after dilution added into ELIAS plate with a volume ratio of 1:1000 between polyclonal antibody against G2-aroA protein and coating buffer, 100 μL per well, and coating overnight in wet box at 4° C. […]
In another aspect, the sample to be detected prepared in step 1 was diluted with sample buffer in a ratio of 1:5, and then 100 μL of diluted sample was added to each well. […]
(9) Measurement: the OD value was measured at 405 nm.
(10) Plotting the standard curve: the standard solution concentration of G2-aroA protein of various of concentration (ng/mL) was plotted on X axis, and the OD value of G2-aroA protein standard measured in step (9) was plotted on Y axis, then the standard curve was plotted by EXCEL.
(11) The OD value of sample to be detected measured in step (9) was used in standard curve equation obtained in step (10) to calculate the content of G2-aroA protein in sample to be detected.
The content of G2-aroA protein in fresh weight=the content of G2-aroA protein of sample to be detected×the volume of sample to be detected/fresh weight of the sample, unit: μg/g. […]

Row | Molecule | phytotoxicity after Roundup treatment [1] | phytotoxicity response at late stage of plants growth [1] | G2-aroA protein concentration (G2-aroA protein) | expression amount of G2-aroA protein in per gram (fresh weight) of leaf plate (G2-aroA protein)
1 | mG2-aroA: codons optimized glyphosate-resistant gene, SEQ ID NO. 2, encoding G2-aroA protein; tested as T6 transgenic maize (nucleic acid) DNA: ATGGCGTGCCTCCCTGACGATTCTGGTCCGCATGTCGGACACTCCACTCCACCTCGCCTGGACCAGGAGCCCTGTACCTTGTCGTCCCAGAAGACGGTTACGGTGACGCCACCCAACTTCCCGTTGACTGGGAAGGTCGCTCCACCTGGCTCCAAGTCTATCACCAACCGTGCACTGTTGCTGGCTGCGTTGGCCAAAGGGACCAGTCGGTTGAGCGGTGCGCTCAAGTCGGATGACACTCGCCACATGTCGGTGGCTCTGAGGCAGATGGGTGTCACGATCGACGAACCGGATGACACGACCTTCGTGGTCACGAGCCAAGGCAGCCTCCAGCTGCCAGCCCAACCGTTGTTCCTCGGCAATGCTGGCACCGCTATGCGCTTCCTCACGGCTGCGGTGGCCACCGTCCAAGGCACGGTCGTTCTGGATGGCGATGAGTACATGCAGAAGCGTCCCATCGGACCCTTGCTGGCGACGCTTGGACAGAACGGCATCCAAGTGGATTCTCCCACCGGTTGCCCACCCGTCACCGTGCACGGCATGGGCAAGGTCCAAGCGAAGCGGTTCGAGATCGACGGTGGGCTCTCCTCCCAGTACGTCTCAGCCCTGCTCATGCTCGCTGCGTGTGGCGAGGCACCGATCGAGGTTGCGCTCACAGGCAAGGACATCGGTGCCAGAGGGTACGTGGACCTGACCCTCGACTGCATGAGAGCCTTTGGAGCACAGGTTGACGCAGTGGACGACACGACCTGGAGGGTCGCTCCCACAGGGTACACCGCTCATGACTATCTCATCGAACCCGACGCCAGCGCTGCGACGTACTTGTGGGCAGCCGAGGTCCTGACCGGTGGCAGGATTGATATTGGCGTTGCTGCGCAGGACTTCACCCAACCGGACGCCAAGGCTCAAGCCGTGATTGCGCAGTTCCCTAACATGCAAGCCACCGTGGTTGGCTCCCAGATGCAGGACGCGATCCCGACCCTGGCTGTCCTCGCAGCCTTCAACAATACTCCCGTGCGCTTCACTGAGCTTGCCAACCTTAGGGTCAAGGAGTGCGATCGCGTGCAAGCCCTGCACGATGGGCTCAACGAGATCAGGCCAGGCCTCGCCACCATCGAGGGAGACGACCTGCTCGTGGCCAGCGACCCAGCGCTTGCAGGGACAGCCTGCACAGCCCTGATCGACACCCACGCTGACCATCGCATCGCGATGTGCTTTGCCCTGGCTGGCCTTAAGGTCTCAGGCATTCGCATTCAGGACCCTGACTGCGTGGCCAAGACCTACCCTGACTACTGGAAGGCTCTTGCCAGCCTTGGCGTTCACCTCAACGACTGATGA | phytotoxicity was not obvious, they grew normally | no phytotoxicity response | 3.304 µg/g and 2.977 µg/g and 4.321 µg/g and 4.339 µg/g | up to 15.057 μg
2 | G2-aroA: initial prokaryote glyphosate-resistant gene, SEQ ID NO. 1; tested as T6 transgenic maize (nucleic acid) DNA: ATGGCGTGTTTGCCTGATGATTCGGGTCCGCATGTCGGCCACTCCACGCCACCTCGCCTTGACCAGGAGCCTTGTACCTTGAGTTCGCAGAAAACCGTGACCGTTACACCGCCCAACTTCCCCCTCACTGGCAAGGTCGCGCCCCCCGGCTCCAAATCCATTACCAACCGTGCGCTGTTGCTGGCGGCATTGGCCAAGGGCACCAGCCGTTTGAGCGGTGCGCTCAAAAGCGATGACACGCGCCACATGTCGGTCGCCCTGCGGCAGATGGGCGTCACCATCGACGAGCCGGACGACACCACCTTTGTGGTCACCAGCCAAGGCTCGCTGCAATTGCCGGCCCAGCCGTTGTTCCTCGGCAACGCTGGCACCGCCATGCGCTTTCTCACGGCTGCCGTGGCCACCGTGCAAGGCACCGTGGTACTGGACGGCGACGAGTACATGCAAAAACGCCCGATTGGCCCGCTGCTGGCTACCCTGGGCCAGAACGGCATCCAGGTCGACAGCCCCACCGGTTGCCCACCGGTCACCGTGCACGGCATGGGCAAGGTCCAGGCCAAGCGTTTCGAGATTGATGGTGGTTTGTCCAGCCAGTACGTATCGGCCCTGCTGATGCTCGCGGCGTGCGGCGAAGCGCCGATTGAAGTGGCGCTGACCGGCAAGGATATCGGTGCCCGTGGCTACGTGGACCTGACCCTCGACTGCATGCGTGCCTTCGGGGCCCAGGTGGACGCCGTGGACGACACCACCTGGCGCGTCGCCCCCACCGGCTATACCGCCCATGATTACCTGATCGAACCCGATGCGTCCGCCGCCACGTATTTGTGGGCCGCAGAAGTGCTGACCGGTGGGCGTATCGACATCGGCGTAGCCGCGCAGGACTTCACCCAGCCCGACGCCAAGGCCCAGGCCGTGATTGCGCAGTTCCCGAACATGCAAGCCACGGTGGTAGGCTCGCAAATGCAGGATGCGATCCCGACCCTGGCGGTGCTCGCCGCGTTCAACAACACCCCGGTGCGTTTCACTGAACTGGCGAACCTGCGCGTCAAGGAATGTGACCGCGTGCAGGCGCTGCACGATGGCCTCAACGAAATTCGCCCGGGCCTGGCGACCATCGAGGGCGATGACCTGCTGGTCGCCAGCGACCCGGCCCTGGCAGGCACCGCCTGCACCGCACTGATCGACACCCACGCCGACCATCGCATCGCCATGTGCTTTGCCCTGGCCGGGCTTAAAGTCTCGGGCATTCGCATTCAAGACCCGGACTGCGTGGCCAAGACCTACCCTGACTACTGGAAAGCCCTGGCCAGCCTGGGCGTTCACCTAAACGACTGA | very serious phytotoxicity, and all plants showed yellowing, abnormalities; also recorded: phytotoxicity was very serious, plants all show yellowing, abnormalities | most of plants showed that the tassels did not differentiate, and ears did not silk or plants were short | 10.671 µg/g and 20.227 µg/g and 14.237 µg/g and 15.096 µg/g | 3.735 µg

— patent US20150353951A1, “SYNTHETIC GLYPHOSATE-RESISTANT GENE AND USE THEREOF” (priority 2012, published 2015)
